Measured values: patent US20220332804A1 (CSL INNOVATION, published 2022)

Legend:
Assay in all cases: SPR, KD relative to WT C2;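 also: biacore SPR at 37 °C, anti-C2 mAbs captured on anti-human IgG chips with alanine or serine point mutants of C2 as analyte, KD from 1:1 fit compared with wild-type C2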
[1] = target: T1, human C2 V448A (human, UniProt P06681 21-752)
T1 sequence: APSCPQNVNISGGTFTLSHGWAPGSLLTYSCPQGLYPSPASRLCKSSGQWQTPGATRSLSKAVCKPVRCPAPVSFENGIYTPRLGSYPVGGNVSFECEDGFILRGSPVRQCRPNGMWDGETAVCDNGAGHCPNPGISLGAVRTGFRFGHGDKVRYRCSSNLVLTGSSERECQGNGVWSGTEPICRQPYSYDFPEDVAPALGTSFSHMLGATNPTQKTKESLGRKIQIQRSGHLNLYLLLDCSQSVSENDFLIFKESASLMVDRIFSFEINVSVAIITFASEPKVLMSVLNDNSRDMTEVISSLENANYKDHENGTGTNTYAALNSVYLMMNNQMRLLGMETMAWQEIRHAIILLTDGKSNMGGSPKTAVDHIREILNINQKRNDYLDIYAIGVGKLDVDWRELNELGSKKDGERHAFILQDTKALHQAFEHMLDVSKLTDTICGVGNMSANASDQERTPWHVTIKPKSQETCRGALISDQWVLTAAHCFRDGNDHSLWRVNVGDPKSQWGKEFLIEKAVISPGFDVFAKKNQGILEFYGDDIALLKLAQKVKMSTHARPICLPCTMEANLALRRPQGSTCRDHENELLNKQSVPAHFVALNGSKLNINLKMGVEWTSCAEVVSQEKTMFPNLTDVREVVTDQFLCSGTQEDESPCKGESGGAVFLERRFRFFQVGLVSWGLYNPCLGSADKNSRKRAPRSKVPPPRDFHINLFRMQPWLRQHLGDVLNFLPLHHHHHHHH

[2] = target: T2, human C2 H435A (human, UniProt P06681 21-752)
T2 sequence: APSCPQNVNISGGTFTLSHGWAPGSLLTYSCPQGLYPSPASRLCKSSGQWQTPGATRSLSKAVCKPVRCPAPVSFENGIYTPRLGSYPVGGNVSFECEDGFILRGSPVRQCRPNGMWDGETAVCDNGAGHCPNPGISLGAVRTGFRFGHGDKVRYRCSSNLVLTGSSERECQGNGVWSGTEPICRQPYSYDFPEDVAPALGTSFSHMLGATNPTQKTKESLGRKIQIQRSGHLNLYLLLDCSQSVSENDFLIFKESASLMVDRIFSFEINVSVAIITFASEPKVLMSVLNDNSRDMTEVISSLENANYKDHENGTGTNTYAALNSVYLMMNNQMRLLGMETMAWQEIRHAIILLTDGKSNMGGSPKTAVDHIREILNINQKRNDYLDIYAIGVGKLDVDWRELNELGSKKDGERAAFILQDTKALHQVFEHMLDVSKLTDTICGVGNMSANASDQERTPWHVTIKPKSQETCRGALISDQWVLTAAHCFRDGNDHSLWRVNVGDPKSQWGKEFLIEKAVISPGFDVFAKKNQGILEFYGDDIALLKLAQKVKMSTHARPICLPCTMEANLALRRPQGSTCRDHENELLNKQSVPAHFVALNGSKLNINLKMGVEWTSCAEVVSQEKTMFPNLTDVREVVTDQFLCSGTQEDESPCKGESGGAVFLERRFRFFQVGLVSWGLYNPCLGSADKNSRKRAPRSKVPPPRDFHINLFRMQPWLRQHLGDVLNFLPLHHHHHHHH

[3] = target: T3, human C2 N424A (human, UniProt P06681 21-752)
T3 sequence: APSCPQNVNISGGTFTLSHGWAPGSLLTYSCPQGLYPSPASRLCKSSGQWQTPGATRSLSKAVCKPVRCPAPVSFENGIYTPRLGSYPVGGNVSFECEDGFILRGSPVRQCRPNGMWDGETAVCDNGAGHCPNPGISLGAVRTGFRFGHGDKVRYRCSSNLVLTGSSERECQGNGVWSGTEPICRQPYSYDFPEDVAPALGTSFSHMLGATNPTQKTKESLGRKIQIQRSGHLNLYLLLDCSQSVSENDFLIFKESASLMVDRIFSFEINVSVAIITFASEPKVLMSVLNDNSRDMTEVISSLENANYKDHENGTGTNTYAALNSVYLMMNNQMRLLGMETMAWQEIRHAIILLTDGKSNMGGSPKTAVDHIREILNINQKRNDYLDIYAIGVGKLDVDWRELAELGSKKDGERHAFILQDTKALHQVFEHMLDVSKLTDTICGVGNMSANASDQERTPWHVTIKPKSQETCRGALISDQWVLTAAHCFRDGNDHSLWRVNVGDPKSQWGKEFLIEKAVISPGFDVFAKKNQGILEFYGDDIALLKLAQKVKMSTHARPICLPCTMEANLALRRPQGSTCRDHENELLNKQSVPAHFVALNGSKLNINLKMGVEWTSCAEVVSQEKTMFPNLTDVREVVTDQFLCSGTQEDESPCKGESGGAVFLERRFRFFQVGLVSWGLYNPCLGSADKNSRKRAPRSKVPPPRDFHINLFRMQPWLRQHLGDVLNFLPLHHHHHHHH

[4] = target: T4, human C2 F270A (human, UniProt P06681 21-752)
T4 sequence: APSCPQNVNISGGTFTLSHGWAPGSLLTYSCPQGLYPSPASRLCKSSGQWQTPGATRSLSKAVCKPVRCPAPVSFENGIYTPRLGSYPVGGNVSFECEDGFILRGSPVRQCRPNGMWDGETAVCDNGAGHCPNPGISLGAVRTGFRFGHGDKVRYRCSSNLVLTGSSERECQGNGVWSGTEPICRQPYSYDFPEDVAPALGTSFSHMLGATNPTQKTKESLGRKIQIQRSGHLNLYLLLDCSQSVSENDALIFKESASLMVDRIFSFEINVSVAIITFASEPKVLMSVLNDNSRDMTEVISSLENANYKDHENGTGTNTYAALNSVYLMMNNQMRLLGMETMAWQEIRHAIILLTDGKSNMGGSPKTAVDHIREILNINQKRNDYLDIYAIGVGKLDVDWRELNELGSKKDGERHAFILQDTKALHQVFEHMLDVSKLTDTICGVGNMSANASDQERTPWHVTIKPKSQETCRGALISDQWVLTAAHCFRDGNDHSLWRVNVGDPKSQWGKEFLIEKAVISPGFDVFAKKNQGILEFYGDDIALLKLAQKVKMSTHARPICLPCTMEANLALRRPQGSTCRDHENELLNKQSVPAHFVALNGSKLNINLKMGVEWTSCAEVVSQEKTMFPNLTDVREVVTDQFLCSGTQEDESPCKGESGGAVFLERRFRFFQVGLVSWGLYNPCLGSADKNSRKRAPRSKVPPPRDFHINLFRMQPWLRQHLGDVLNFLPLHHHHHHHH

B1: RF16-242 (antibody, human IgG4 S228P, lambda, V domains shown)
VH: EVQLLQSGAEVKKPGESLKISCKGSGYSFTSYWIGWVRQMPGKGLEWMGIIYPGDSDTRYSPSFQGQVTISADKSISTAYLQWSSLKASDTAMYYCARRGHYGDYFDYWGQGTLVTVSS
VL: SYELTQPPSVSVSPGQTARITCSGDALPKKYAYWYHQKSGQAPVLVIYEDRRRPSEIPERFSGSSSGTMATLTITGAQVEDEGVYFCYSRDRAGNQRVFGGGTQLTVLG
notes: pH-dependent anti-C2 antibody from a phage display library
In the case of B1, the Fold diff [1] is reported as 1 fold, the Fold diff [2] is reported as 9 fold and the Fold diff [3] is reported as 1 fold. It also gave a Fold diff [4] of 15 fold.
